Measured values reported in publication PMC11832770, “NADH-bound AIF activates the mitochondrial CHCHD4/MIA40 chaperone by a substrate-mimicry mechanism” (The EMBO Journal, 2025).
Numbering of substitutions follows the chain as printed. Names and notes keep the numbering of the source.

T1: CHCHD4-SPS (C53S/C55S), full length (human, UniProt Q8N4Q1 1-142, C53S | C55S)
T1 sequence: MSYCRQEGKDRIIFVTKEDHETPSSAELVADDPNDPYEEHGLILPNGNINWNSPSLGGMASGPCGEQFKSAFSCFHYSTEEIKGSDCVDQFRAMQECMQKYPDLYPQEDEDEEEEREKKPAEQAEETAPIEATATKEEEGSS

T2: ΔN-CHCHD4-SPS (residues 40-142, C53S/C55S) (human, UniProt Q8N4Q1 40-142, C53S | C55S)
T2 sequence: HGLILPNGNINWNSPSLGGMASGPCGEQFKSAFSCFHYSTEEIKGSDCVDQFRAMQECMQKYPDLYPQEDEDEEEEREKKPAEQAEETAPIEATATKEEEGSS

T3: CHCHD4-AIA-A-SPS (I12A/F14A/H20A/C53S/C55S) (human, UniProt Q8N4Q1 1-142, I12A | F14A | H20A | C53S | C55S)
T3 sequence: T1 sequence with I12A, F14A, H20A

T4: CHCHD4-AIA-A-SPS (I12A/F14A/H20A/C53S/C55S) (human, UniProt Q8N4Q1 1-142, I12A | F14A | H20A | C53S | C55S, heat-unfolded and TCEP-reduced (free cysteines). The printed accession E5RGN4 is not among the candidates; the canonical human CHCHD10 entry Q8WYQ3 (used for the AlphaFold model) is taken instead. …)
T4 sequence: T1 sequence with I12A, F14A, H20A

T5: ΔN-CHCHD4-SPS (residues 40-142, C53S/C55S) (human, UniProt Q8N4Q1 40-142, C53S | C55S, heat-unfolded and TCEP-reduced (free cysteines). The printed accession E5RGN4 is not among the candidates; the canonical human CHCHD10 entry Q8WYQ3 (used for the AlphaFold model) is taken instead. …)
T5 sequence: T2 sequence

T6: CHCHD4-SPS (C53S/C55S), full length (human, UniProt Q8N4Q1 1-142, C53S | C55S, heat-unfolded and TCEP-reduced (free cysteines). The printed accession E5RGN4 is not among the candidates; the canonical human CHCHD10 entry Q8WYQ3 (used for the AlphaFold model) is taken instead. …)
T6 sequence: T1 sequence

T7: CHCHD6, unfolded and reduced (human, UniProt Q9BRQ6 1-235)
T7 construct: CHCHD6 (MIC25), human, CX9C import substrate; construct from the DNASU Plasmid Repository inserted into pET30a; also called unfolded CHCHD6 substrate; MIC25; source: E. coli Rosetta2Gami(DE3), purified; unfolded by heating at 70 °C for 20 min with TCEP; not shown: GB1-6X-His, N-terminal, cleaved
T7 sequence (looked up): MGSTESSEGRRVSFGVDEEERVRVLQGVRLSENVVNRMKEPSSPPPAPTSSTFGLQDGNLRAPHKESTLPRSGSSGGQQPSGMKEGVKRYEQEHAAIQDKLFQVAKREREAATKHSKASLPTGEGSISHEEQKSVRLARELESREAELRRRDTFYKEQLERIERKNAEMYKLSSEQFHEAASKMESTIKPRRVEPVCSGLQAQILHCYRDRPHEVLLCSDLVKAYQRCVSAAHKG

B1: CHCHD4-N45 (residues 1-45) (domain or fragment, human, UniProt Q8N4Q1 1-45, looked up)
chain: MSYCRQEGKDRIIFVTKEDHETPSSAELVADDPNDPYEEHGLILP
notes: In the crystal structure (PDB 8VGY) the same residues 1-45 stood linked to the C-terminus of AIF(104-613)-W196A; also called CHCHD4(1-45); source: E. coli Rosetta2Gami(DE3), purified (Ni-NTA, PreScission cleavage, subtractive Ni-NTA, Superdex 75); not shown: GB1-6X-His, N-terminal, cleaved
B2: CHCHD6, unfolded and reduced (natural protein)
chain: T7 sequence (looked up)
B3: CHCHD10, unfolded and reduced (natural protein)
chain: MPRGSRSAASRPASRPAAPSAHPPAHPPPSAAAPAPAPSGQPGLMAQMATTAAGVAVGSAVGHVMGSALTGAFSGGSSEPSQPAVQQAPTPAAPQPLQMGPCAYEIRQFLDCSTTQSDLSLCEGFSEALKQCKYYHGLSSLP
B4: ΔN-CHCHD4-SPS (residues 40-142, C53S/C55S) (domain or fragment, human, UniProt Q8N4Q1 40-142, looked up)
chain: T2 sequence
notes: Folded, as titrant in ITC and in analytical SEC; also called ΔN-SPS; source: E. coli Rosetta2Gami(DE3), purified (Ni-NTA, PreScission cleavage, subtractive Ni-NTA, Superdex 75); not shown: GB1-6X-His, N-terminal, cleaved
B5: ΔN-CHCHD4 (residues 40-142) (domain or fragment, human, UniProt Q8N4Q1 40-142, looked up)
chain: T2 sequence with S14C, S16C
notes: also called N-terminal truncation mutant; source: E. coli Rosetta2Gami(DE3), purified (Ni-NTA, PreScission cleavage, subtractive Ni-NTA, Superdex 75); not shown: GB1-6X-His, N-terminal, cleaved
B6: CHCHD4-SPS (C53S/C55S), full length (natural protein, human, UniProt Q8N4Q1 1-142, looked up)
chain: T1 sequence
notes: source: E. coli Rosetta2Gami(DE3), purified (Ni-NTA, PreScission cleavage, subtractive Ni-NTA, Superdex 75); not shown: GB1-6X-His, N-terminal, cleaved
B7: CHCHD4, wild type, full length (natural protein, human, UniProt Q8N4Q1 1-142, looked up)
chain: T1 sequence with S53C, S55C
notes: also called CHCHD4-WT; MIA40; source: E. coli Rosetta2Gami(DE3), purified (Ni-NTA, PreScission cleavage, subtractive Ni-NTA, Superdex 75); not shown: GB1-6X-His, N-terminal, cleaved
B8: CHCHD4-AIA-A-SPS (I12A/F14A/H20A/C53S/C55S) (natural protein, human, UniProt Q8N4Q1 1-142, looked up)
chain: T1 sequence with I12A, F14A, H20A
notes: CHCHD4/MIA40, human, full length; source: E. coli Rosetta2Gami(DE3), purified (Ni-NTA, PreScission cleavage, subtractive Ni-NTA, Superdex 75); not shown: GB1-6X-His, N-terminal, cleaved
B9: Atto488-CHCHD4 (natural protein, human, UniProt Q8N4Q1 1-142, looked up)
chain: T1 sequence with S53C, S55C
modifications: ATTO 488 (NHS ester) on the N-terminus
notes: not shown: GB1-6X-His, N-terminal, cleaved
B10: CHCHD4-L28D (natural protein, human, UniProt Q8N4Q1 1-142, looked up)
chain: T1 sequence with L28D, S53C, S55C
notes: as for B8
B11: Atto488-ΔN-CHCHD4-SPS, unfolded (domain or fragment, human, UniProt Q8N4Q1 40-142, looked up)
chain: T2 sequence
modifications: ATTO 488 (NHS ester) on the N-terminus
notes: also called unfolded CHCH substrate; unfolded fluorescent substrate; not shown: GB1-6X-His, N-terminal, cleaved
B12: CHCHD4-AIA (I12A/F14A) (natural protein, human, UniProt Q8N4Q1 1-142, looked up)
chain: T1 sequence with I12A, F14A, S53C, S55C
notes: CHCHD4/MIA40, human, full length; The methods print F12A/I14A for this mutant; the results print I12A/F14A; also called β-hairpin mutant; source: E. coli Rosetta2Gami(DE3), purified (Ni-NTA, PreScission cleavage, subtractive Ni-NTA, Superdex 75); not shown: GB1-6X-His, N-terminal, cleaved

How the values were obtained:
AIF(104-613)-W196A = molecular target: T8, AIF(104-613)-W196A (human, UniProt O95831 104-613, W196A); assay: crystal structure; AIF(104-613)-W196A-CHCHD4(1-45) chimera, hanging drop, 0.1 M HEPES pH 8, 0.1 M NaCl, 18% PEG3350; CHCHD4 N45 linked to the C-terminus of AIF by …; AIF dimer with N45 resolved on both monomers; details: both partners purified
T8 construct: Apoptosis-inducing factor (AIF), human, residues 104-613; Stands only for the AIF half of the crystallised chimera, so that the AIF-CHCHD4 contact can be written as a pair; also called dimer-permissive AIF (104-613) W196A mutant; source: E. coli Rosetta2(DE3), purified, as the AIF part of the chimera m17

Atto488-AIF(78-613)/NADH [1] = molecular target: T9, Atto488-AIF(78-613)/NADH (human, UniProt O95831 78-613, ATTO 488 (NHS ester) on the N-terminus); assay: MST; CHCHD4 constructs titrated (1.8 nM–15 or 30 µM) into 100 nM Atto488-AIF(78-613) with unlabeled AIF and NADH (pre-formed charge-transfer complex); 25 mM HEPES pH 7.5, 150 mM NaCl, 0.01% Tween-20, 5 mM TCEP; 25 °C; first block of Table 1 (Fig. 1B); details: both partners purified
T9 construct: Apoptosis-inducing factor (AIF), human, residues 78-613; also called Atto488-AIF-NADH; Atto488-AIF/NADH

[2] = molecular target: T1, CHCHD4-SPS (C53S/C55S), full length; assay: ITC
[3] = molecular target: T2, ΔN-CHCHD4-SPS (residues 40-142, …); assay: ITC
[4] = molecular target: T3, CHCHD4-AIA-A-SPS …; assay: ITC
[5] = molecular target: T4, CHCHD4-AIA-A-SPS …; assay: ITC
[6] = molecular target: T5, ΔN-CHCHD4-SPS (residues 40-142, …); assay: ITC
[7] = molecular target: T6, CHCHD4-SPS (C53S/C55S), full length; assay: ITC
[8] = molecular target: T7, CHCHD6, unfolded and reduced; assay: ITC; 700-750 µM CPC-inactivated CHCHD4 constructs titrated into 50 µM unfolded substrate; 25 mM HEPES pH 7.5, 150 mM NaCl, 1 mM TCEP; 25 °C; details: both partners purified
[9] = molecular target: the molecule itself; assay: SEC; Superdex 75 10/300, 25 mM HEPES pH 7.5, 150 mM NaCl, without reducing agent (also ± 5 mM βME and after 0-10 mM TCEP); 200 µM samples; monomer against disulfide-mediated dimer
both import substrates = assay: ITC; 700-750 µM CPC-inactivated CHCHD4 constructs titrated into 50 µM unfolded substrate; 25 mM HEPES pH 7.5, 150 mM NaCl, 1 mM TCEP; 25 °C
Atto488-AIF(78-613)/NADH [10] = molecular target: T9, Atto488-AIF(78-613)/NADH; assay: MST; CHCHD4 interface mutants titrated (1.8 nM–15 or 30 µM) into 100 nM Atto488-AIF(78-613) with unlabeled AIF and NADH; same buffer, 25 °C; third block of Table 1 (Fig. 2A), fitted with a Hill coefficient; details: both partners purified
AIF(78-613), wild type = molecular target: T10, AIF(78-613), wild type (human, UniProt O95831 78-613); assay: MST; wild-type AIF titrated (1.8 nM–30 µM) into 100 nM Atto488-CHCHD4 with 300 µM NADH; 25 mM HEPES pH 7.5, 150 mM NaCl, 0.01% Tween-20, 5 mM TCEP; 25 °C; details: both partners purified
T10 construct: Apoptosis-inducing factor (AIF), human, residues 78-613, lacking the inner mitochondrial membrane tether; Construct from Brosey et al 2016; also called Apoptosis-inducing factor; AIF + NADH; source: E. coli Rosetta2(DE3), purified (Ni-NTA, PreScission cleavage, subtractive Ni-NTA, Superdex 200)

AIF-W196A = molecular target: T11, AIF-W196A (human, UniProt O95831 78-613, W196A); assay: MST; AIF allostery mutants titrated (1.8 nM–30 µM) into 100 nM Atto488-CHCHD4 without NADH; 25 mM HEPES pH 7.5, 150 mM NaCl, 0.01% Tween-20, 5 mM TCEP; 25 °C; details: both partners purified
T11 construct: Apoptosis-inducing factor (AIF), human, allostery mutant lacking the inner mitochondrial membrane tether; limits read as those of the wild type, 78-613; source: E. coli Rosetta2(DE3), purified (Ni-NTA, PreScission cleavage, subtractive Ni-NTA, Superdex 200)

AIF-R529A = molecular target: T12, AIF-R529A (human, UniProt O95831 78-613, R529A); assay: as above; details: both partners purified
T12 construct: Apoptosis-inducing factor (AIF), human, allostery mutant lacking the inner mitochondrial membrane tether; limits read as those of the wild type, 78-613; source: E. coli Rosetta2(DE3), purified (Ni-NTA, PreScission cleavage, subtractive Ni-NTA, Superdex 200)

[11] = molecular target: B6; assay: MST; CHCHD4-SPS titrated (15 nM–30 µM) into 100 nM unfolded Atto488-ΔN-CHCHD4-SPS in the presence of AIF(78-613) and NADH (2x stock 30 µM AIF/300 µM NADH); 25 mM HEPES pH 7.5, 150 mM NaCl, 0.01% Tween-20, 5 mM TCEP; 25 °C; a sample with added CHCHD4-N45 showed decreased binding; details: both partners purified

T9 sequence (O95831 78-613): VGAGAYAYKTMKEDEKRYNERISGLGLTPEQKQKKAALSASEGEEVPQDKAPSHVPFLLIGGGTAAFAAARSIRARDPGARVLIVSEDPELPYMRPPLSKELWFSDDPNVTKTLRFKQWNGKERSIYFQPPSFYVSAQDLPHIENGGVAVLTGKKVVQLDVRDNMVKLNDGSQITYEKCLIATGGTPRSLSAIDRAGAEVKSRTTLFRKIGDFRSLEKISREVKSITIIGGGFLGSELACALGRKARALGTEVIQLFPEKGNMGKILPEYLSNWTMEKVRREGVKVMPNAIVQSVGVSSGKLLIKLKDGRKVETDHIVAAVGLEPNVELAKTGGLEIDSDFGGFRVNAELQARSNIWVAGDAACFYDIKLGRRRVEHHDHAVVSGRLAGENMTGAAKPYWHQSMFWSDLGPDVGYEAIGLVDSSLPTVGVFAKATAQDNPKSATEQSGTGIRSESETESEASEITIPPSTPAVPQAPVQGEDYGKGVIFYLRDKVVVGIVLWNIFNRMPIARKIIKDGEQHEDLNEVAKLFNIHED
T8 sequence (O95831 104-613 W196A): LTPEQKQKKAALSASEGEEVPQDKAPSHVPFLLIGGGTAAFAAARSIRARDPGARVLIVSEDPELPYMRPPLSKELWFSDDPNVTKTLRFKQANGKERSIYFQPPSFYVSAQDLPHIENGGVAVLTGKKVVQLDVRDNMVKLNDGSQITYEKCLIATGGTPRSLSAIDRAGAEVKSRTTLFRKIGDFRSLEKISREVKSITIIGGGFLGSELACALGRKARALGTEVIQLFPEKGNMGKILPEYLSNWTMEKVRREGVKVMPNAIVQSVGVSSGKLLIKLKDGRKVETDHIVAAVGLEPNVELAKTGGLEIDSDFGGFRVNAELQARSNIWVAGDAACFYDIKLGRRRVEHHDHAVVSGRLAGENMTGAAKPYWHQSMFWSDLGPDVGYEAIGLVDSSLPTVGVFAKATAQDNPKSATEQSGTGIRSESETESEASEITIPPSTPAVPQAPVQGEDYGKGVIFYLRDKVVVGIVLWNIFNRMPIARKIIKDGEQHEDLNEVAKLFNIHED

With B1 the binding result (AIF(104-613)-W196A) was “binds” and the Kd (Atto488-AIF(78-613)/NADH [1]) was 630 nM.

With B2 the Kd [2] was 26.5 µM, the Kd [3] was 14.9 µM and the Kd [4] was 8.3 µM.

With B3 the Kd [5] was 4.5 µM, the Kd [6] was 6.4 µM and the Kd [7] was 20.4 µM.

B4: binds [8].

B5: binds [9].

Binder B6 has a Kd (both import substrates) of 18 to 40 µM and a Kd (Atto488-AIF(78-613)/NADH [1]) of 230 nM.

Work on B7 yielded a Kd (Atto488-AIF(78-613)/NADH [10]) of 180 nM and a Kd (Atto488-AIF(78-613)/NADH [1]) of 580 nM.

B8: binds [8].

In the case of B9, the Kd (AIF(78-613), wild type) is reported as 340 nM, the Kd (AIF-W196A) is reported as 2200 nM and the Kd (AIF-R529A) is reported as 2500 nM.

With B10 the Kd (Atto488-AIF(78-613)/NADH [10]) was 240 nM.

B11: binds [11].

In the case of B12, the Kd (Atto488-AIF(78-613)/NADH [10]) is reported as 3000 nM.
